Measurements published in patent publication US20200317768A1 (published 2020).
Changes are numbered by the printed parent chain. Numbers in names are those of the source.

T1: soluble mouse FcγRII, His-tagged (mouse, UniProt P08101 30-210, limits assumed)
T1 construct: Captured on the chip by an anti-His antibody
T1 sequence (looked up): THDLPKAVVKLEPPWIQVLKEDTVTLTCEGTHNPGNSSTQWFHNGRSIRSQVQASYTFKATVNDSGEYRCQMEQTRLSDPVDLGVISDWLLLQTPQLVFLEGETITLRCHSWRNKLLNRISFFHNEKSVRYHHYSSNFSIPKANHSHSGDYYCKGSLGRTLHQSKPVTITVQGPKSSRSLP

T2: human FcγRIIaR extracellular domain, C-terminal His-tag (human, UniProt P12318 34-217)
T2 construct: also called human FcγRIIa (type R); FcgRIIaR
T2 chain: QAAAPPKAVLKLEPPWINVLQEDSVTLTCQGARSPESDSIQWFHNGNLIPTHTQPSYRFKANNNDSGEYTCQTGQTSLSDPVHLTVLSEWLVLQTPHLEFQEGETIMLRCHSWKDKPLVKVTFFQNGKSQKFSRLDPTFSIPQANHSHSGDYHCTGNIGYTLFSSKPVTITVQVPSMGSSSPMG

T3: human FcγRIIaH extracellular domain, C-terminal His-tag (human, UniProt P12318 34-217)
T3 construct: also called human FcγRIIa (type H); FcgRIIaH
T3 sequence: T2 chain with R134H

T4: human FcγRIIb constitutively expressed on MDCK cells (human, UniProt P31994 43-310)
T4 sequence (looked up): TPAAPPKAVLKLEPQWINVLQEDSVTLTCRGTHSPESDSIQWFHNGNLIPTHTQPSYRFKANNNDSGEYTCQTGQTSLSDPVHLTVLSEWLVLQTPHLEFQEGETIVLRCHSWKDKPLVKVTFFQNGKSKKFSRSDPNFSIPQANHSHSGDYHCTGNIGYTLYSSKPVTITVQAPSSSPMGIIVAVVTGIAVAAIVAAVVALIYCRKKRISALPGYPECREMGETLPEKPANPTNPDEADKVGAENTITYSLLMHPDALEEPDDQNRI

B1: M103205H795-P1549m/M103202L889-SK1 (antibody, human IgG1, kappa)
heavy: QVTLKESGPVLVKPTETLTLTCTVSGIDLSHDDISWVRQAPGKGLEWVGIISYAGSTYYASWAKGRLTISKDTSKNQVVLTMTNMDPVDTATYYCARGVPAYSHGGDLWGQGTLVTVSSASTKGPSVFPLAPSSKSTSGGTAALGCLVKDYFPEPVTVSWNSGALTSGVHTFPAVLQSSGLYSLSSVVTVPSSSLGTQTYICNVNHKPSNTKVDKKVEPKSCDKTHTCPPCPAPELLGGPSVFLFPPKPKDTLMISRTPEVTCVVVDVSHEDPEVKFNWYVDGVEVHNAKTKPREEQYNSTYRVVSVLTVLHRDWLNGKEYKCKVSNKALPAPIEKTISKAKGQPREPQVYTLPPSREEMTKNQVSLTCLVKGFYPSDIAVEWESNRQPENNYKTTPPVLDSDRSFFLYSKLTVDKSRWQQGNVFSCSVMHEALHNHYTQKSLSLSP
light: DIVMTQSPATLSLSPGERATLSCTSSQSVYHANWLSWFQQKPGQPPKLLIYWASTLAYGVPSRFSGSGSGTDFTLTISSLQPEDAATYYCAGGYGGGRYAFGQGTKVEIKRTVAAPSVFIFPPSDEQLKSGTASVVCLLNNFYPREAKVQWKVDNALQSGNSQESVTEQDSKDSTYSLSSTLTLSKADYEKHKVYACEVTHQGLSSPVTKSFNRGEC
B2: M103205H795-SG141/M103202L889-SK1 (antibody, human IgG1, kappa)
heavy: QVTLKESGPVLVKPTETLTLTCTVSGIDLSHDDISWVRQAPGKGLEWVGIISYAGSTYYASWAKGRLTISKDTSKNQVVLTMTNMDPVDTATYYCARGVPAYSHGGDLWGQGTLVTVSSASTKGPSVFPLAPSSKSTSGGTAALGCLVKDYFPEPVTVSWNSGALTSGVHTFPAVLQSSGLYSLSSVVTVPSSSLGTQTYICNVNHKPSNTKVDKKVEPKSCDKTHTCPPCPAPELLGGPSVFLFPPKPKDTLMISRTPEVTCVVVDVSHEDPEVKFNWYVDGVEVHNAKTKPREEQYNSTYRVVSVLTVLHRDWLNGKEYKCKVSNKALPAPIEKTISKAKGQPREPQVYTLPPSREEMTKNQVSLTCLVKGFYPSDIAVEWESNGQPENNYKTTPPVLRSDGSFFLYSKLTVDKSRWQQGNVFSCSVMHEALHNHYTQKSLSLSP
light: B1 light
B3: M103205H795-P1555m/M103202L889-SK1 (antibody, human IgG1, kappa)
heavy: B1 heavy with R313Q, R387G, E390R, D415K
light: B1 light
B4: M103205H795-P1550m/M103202L889-SK1 (antibody, human IgG1, kappa)
heavy: B1 heavy with R387G, E390R, D403R, R404G
light: B1 light
B5: M103205H795-P1553m/M103202L889-SK1 (antibody, human IgG1, kappa)
heavy: B1 heavy with R313Q, D415K
light: B1 light
B6: M103205H795-P1551m/M103202L889-SK1 (antibody, human IgG1, kappa)
heavy: B1 heavy with R387G, E390R
light: B1 light
B7: M103205H795-P1552m/M103202L889-SK1 (antibody, human IgG1, kappa)
heavy: B1 heavy with R313Q, D403R, R404G, D415K
light: B1 light
B8: GpH7-B3 variant A327N/GpL16-k0 (antibody, human IgG1, kappa)
heavy: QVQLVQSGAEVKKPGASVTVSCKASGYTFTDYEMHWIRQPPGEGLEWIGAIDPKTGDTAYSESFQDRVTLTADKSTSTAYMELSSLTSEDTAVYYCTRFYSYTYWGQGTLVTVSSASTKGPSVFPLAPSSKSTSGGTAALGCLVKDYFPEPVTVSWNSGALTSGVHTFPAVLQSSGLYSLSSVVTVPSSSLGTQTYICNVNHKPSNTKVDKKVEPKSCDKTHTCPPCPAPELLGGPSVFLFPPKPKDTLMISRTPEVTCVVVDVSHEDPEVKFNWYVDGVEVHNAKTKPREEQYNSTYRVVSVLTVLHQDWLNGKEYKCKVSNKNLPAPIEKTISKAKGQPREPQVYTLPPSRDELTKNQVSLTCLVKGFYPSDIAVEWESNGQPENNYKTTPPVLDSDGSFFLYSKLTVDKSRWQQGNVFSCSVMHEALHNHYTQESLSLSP
light: DIVMTQSPLSLPVTPGEPASISCQASESLVHSNRNTYLHWYLQKPGQSPQLLIYKVSNRFSGVPDRFSGSGSGTDFTLKISRVEAEDVGVYYCSQNTHVPPTFGQGTKVEIERTVAAPSVFIFPPSDEQLKSGTASVVCLLNNFYPREAKVQWKVDNALQSGNSQESVTEQDSKDSTYSLSSTLTLSKADYEKHKVYACEVTHQGLSSPVTKSFNRGEC
B9: GpH7-B3 variant A330R/GpL16-k0 (antibody, human IgG1, kappa)
heavy: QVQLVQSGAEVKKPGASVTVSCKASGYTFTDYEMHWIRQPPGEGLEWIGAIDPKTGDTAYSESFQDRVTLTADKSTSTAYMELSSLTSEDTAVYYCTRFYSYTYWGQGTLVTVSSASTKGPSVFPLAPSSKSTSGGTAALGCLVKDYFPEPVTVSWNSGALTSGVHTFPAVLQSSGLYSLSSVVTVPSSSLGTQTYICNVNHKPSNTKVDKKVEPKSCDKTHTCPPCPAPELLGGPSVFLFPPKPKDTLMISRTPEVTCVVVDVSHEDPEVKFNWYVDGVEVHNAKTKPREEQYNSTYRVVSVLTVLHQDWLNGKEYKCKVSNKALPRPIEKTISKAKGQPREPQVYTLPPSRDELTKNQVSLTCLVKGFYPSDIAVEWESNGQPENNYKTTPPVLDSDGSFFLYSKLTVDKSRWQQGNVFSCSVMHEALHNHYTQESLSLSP
light: B8 light
B10: GpH7-B3 variant P238E/GpL16-k0 (antibody, human IgG1, kappa)
heavy: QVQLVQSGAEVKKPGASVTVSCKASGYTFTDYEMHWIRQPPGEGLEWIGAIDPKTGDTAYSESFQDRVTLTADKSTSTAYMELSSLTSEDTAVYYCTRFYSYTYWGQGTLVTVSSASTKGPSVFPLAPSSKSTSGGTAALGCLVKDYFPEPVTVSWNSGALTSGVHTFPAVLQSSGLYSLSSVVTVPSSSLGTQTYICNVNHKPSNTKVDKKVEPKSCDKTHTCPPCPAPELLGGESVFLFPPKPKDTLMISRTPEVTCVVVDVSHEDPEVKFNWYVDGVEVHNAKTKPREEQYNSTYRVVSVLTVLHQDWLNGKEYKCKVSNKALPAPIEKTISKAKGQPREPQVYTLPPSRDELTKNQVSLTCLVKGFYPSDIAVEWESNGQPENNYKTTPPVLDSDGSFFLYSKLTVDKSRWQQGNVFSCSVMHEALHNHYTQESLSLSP
light: B8 light
B11: GpH7-B3 variant P271E/GpL16-k0 (antibody, human IgG1, kappa)
heavy: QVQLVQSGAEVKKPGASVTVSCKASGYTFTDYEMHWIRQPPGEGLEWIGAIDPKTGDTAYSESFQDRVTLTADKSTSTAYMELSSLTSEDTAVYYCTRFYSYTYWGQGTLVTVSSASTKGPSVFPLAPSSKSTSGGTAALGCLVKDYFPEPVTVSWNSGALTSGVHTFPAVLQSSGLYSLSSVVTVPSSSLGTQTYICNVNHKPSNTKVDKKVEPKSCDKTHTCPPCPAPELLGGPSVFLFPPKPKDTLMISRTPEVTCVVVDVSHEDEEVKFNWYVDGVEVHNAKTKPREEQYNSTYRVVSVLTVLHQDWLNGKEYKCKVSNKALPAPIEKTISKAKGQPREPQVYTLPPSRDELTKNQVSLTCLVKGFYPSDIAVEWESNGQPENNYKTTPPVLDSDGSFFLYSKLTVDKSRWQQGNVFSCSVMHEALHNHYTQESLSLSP
light: B8 light
B12: GpH7-B3 variant A330K/GpL16-k0 (antibody, human IgG1, kappa)
heavy: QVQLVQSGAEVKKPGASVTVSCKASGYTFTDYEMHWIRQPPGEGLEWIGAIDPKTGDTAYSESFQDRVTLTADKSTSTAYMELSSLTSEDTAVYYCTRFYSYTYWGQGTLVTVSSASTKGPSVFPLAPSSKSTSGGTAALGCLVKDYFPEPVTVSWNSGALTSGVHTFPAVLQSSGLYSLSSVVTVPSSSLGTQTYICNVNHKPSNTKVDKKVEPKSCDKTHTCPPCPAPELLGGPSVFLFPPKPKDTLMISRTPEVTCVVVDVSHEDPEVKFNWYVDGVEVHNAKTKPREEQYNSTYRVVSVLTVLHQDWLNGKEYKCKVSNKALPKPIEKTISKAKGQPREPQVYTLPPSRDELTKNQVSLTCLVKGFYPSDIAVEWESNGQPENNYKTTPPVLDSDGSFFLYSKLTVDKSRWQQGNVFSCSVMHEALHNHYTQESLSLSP
light: B8 light
B13: GpH7-B3 variant N325L/GpL16-k0 (antibody, human IgG1, kappa)
heavy: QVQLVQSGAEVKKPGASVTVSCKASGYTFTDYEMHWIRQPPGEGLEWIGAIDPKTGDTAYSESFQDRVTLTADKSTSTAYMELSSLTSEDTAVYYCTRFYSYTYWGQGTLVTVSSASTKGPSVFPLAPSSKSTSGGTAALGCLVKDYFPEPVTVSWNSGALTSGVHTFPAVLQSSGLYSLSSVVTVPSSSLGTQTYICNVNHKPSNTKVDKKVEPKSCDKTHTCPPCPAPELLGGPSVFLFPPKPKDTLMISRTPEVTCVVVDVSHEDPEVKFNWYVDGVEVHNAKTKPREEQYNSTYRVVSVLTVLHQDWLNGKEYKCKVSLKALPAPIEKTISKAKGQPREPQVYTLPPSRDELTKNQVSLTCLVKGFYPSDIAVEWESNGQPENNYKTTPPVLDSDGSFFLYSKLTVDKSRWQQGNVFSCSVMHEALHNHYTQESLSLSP
light: B8 light
B14: GpH7-B3 variant N325I/GpL16-k0 (antibody, human IgG1, kappa)
heavy: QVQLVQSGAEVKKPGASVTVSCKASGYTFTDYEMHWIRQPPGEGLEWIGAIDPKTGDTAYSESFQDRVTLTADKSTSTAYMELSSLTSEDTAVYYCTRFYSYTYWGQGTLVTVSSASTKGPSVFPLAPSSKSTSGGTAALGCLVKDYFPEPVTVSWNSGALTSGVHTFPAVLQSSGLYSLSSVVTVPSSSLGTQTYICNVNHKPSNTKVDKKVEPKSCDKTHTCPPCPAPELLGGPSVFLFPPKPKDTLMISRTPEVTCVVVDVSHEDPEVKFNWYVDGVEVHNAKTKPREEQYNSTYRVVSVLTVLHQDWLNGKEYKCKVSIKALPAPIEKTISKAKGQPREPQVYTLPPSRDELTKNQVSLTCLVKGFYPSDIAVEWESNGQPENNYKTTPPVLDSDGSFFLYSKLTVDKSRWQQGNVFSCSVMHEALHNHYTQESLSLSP
light: B8 light
B15: GpH7-B3 variant G237Y/GpL16-k0 (antibody, human IgG1, kappa)
heavy: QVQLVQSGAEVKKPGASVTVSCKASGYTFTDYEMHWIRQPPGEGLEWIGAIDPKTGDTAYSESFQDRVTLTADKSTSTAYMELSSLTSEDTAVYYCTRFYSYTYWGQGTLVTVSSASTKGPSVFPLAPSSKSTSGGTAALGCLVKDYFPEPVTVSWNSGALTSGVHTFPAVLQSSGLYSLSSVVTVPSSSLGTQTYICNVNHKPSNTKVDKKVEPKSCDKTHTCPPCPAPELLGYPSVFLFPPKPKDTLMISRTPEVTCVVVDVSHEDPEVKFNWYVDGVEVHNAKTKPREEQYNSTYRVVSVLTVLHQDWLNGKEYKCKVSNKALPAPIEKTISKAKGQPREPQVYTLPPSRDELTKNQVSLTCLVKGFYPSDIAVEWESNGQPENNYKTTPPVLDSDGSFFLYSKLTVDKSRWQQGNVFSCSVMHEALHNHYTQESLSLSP
light: B8 light
B16: GpH7-B3 variant P238M/GpL16-k0 (antibody, human IgG1, kappa)
heavy: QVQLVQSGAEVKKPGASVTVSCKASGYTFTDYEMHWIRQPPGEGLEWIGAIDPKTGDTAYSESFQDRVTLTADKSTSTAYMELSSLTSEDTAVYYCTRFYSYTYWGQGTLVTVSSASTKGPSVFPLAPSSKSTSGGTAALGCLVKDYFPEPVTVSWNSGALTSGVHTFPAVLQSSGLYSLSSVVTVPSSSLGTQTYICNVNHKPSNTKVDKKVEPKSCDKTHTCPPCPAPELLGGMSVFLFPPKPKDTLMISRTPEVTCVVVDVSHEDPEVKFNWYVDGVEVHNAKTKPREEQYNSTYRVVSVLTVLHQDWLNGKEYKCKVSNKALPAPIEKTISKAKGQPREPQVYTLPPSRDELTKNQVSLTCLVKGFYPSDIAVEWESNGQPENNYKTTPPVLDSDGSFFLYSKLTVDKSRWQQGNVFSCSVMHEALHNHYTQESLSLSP
light: B8 light

target: T1, soluble mouse FcγRII, His-tagged; test: SPR, mouse FcgRII-His captured, antigen-antibody complex injected, pH7.4, 25C
Protocol: Regarding the produced Fc region variant-containing antibodies, binding assays between soluble mouse FcγRII and antigen-antibody complexes were performed using BIACORE® T200 (GE Healthcare). Soluble mouse FcγRII was produced in the form of a His-tagged molecule by a method known to those skilled in the art. An appropriate amount of an anti-His antibody was fixed onto Sensor chip CM5 (GE Healthcare) by the amine coupling method using a His capture kit (GE Healthcare) to capture mouse FcγRII. Next, an antibody-antigen complex and a running buffer (as a reference solution) were injected, and interaction was allowed to take place with the mouse FcγRII captured onto the sensor chip. 20 mM N-(2-Acetamido)-2-aminoethanesulfonic acid, 150 mM NaCl, 1.2 mM CaCl₂, and 0.05% (w/v) TWEEN, 20 at pH7.4 was used as the running buffer, and the respective buffer was also used to dilute the soluble mouse FcγRII. To regenerate the sensor chip, 10 mM glycine-HCl at pH1.5 was used. All measurements were carried out at 25° C. […] To calculate the parameters, the BIACORE® T100 Evaluation Software (GE Healthcare) was used.

biacore IC binding	Binder
1.22 relative to SG1 (=1.00)	B1
1.64 relative to SG1 (=1.00)	B2
2.01 relative to SG1 (=1.00)	B3
1.63 relative to SG1 (=1.00)	B4
1.47 relative to SG1 (=1.00)	B5
1.33 relative to SG1 (=1.00)	B6
2.19 relative to SG1 (=1.00)	B7

Target: T2, human FcγRIIaR extracellular domain, …
Test: SPR 25C; FcgR bound per captured antibody, relative to parent B3
Protocol: (§1) These Fc variants are referred to as B3 variants. B3 variants were expressed and the binding of protein-A purified antibodies to each FcγR (FcγRIIa type H. FcγRIIa type R, FcγRIIb, and FcγRIIIaF) was comprehensively evaluated as follows. Analysis of interaction between each altered antibody and the Fcγ receptor prepared as mentioned above was carried out using BIACORE® T100 (GE Healthcare), BIACORE® T200 (GE Healthcare), BIACORE® A100, or BIACORE® 4000. HBS-EP+(GE Healthcare) was used as the running buffer, and the measurement temperature was set to 25° C. Chips produced by immobilizing Protein A (Thermo Scientific), Protein A/G (Thermo Scientific), or Protein L (ACTIGEN or BioVision) by the amine coupling method to a Series S sensor Chip CM5 or CM4 (GE Healthcare) were used. After capturing of antibodies of interest onto these sensor chips, an Fcγ receptor diluted with the running buffer was allowed to interact, the amount bound to an antibody was measured. However, since the amount of Fcγ receptor bound depends on the amount of the captured antibodies, the amount of Fcγ receptor bound was divided by the amount of each antibody captured to obtain corrected values, and these values were compared. Furthermore, antibodies captured onto the chips were washed by 10 mM glycine-HCl pH1.5, and the chips were regenerated and used repeatedly. […] The value obtained by multiplying this value by 100 was used as an indicator of the relative FcγR-binding activity of each variant.

Binding to human FcgRs (parent B3 = 100)	Binder
48 parent B3 = 100	B8
123 parent B3 = 100	B9
2 parent B3 = 100	B10
51 parent B3 = 100	B11
127 parent B3 = 100	B12
13 parent B3 = 100	B13

target: T3, human FcγRIIaH extracellular domain, …; test: as above
Protocol: as §1

Binding to human FcgRs (parent B3 = 100)	Binder
95 parent B3 = 100	B8
76 parent B3 = 100	B14
116 parent B3 = 100	B9
21 parent B3 = 100	B10
90 parent B3 = 100	B11
121 parent B3 = 100	B12
93 parent B3 = 100	B13
77 parent B3 = 100	B15
86 parent B3 = 100	B16

target: T4, human FcγRIIb constitutively expressed …; test: cell-based or functional assay

celluar uptake	Binder
2.03 relative to SG1 (=1.00)	B1
4.42 relative to SG1 (=1.00)	B2
3.71 relative to SG1 (=1.00)	B3
6.43 relative to SG1 (=1.00)	B4
2.86 relative to SG1 (=1.00)	B5
2.91 relative to SG1 (=1.00)	B6
4.44 relative to SG1 (=1.00)	B7
